Experimental data taken from CN110357960A (GUANGZHOU AISIMAI BIOMEDICAL TECH CO LTD, dated 2019).

Molecular target: 肿瘤细胞SKBR3表面的Her2抗原 (UniProt P04626 23-1255, limits assumed)
Assay: cell-based or functional assay

B1: 抗Her2×抗CD3双特异性抗体MutC (bispecific antibody, human IgG1, kappa)
heavy 1: EVQLVESGGGLVQPGGSLRLSCAASGFTFNTYAMNWVRQAPGKGLEWVARIRSKYNNYATYYADSVKDRFTISRDDSKNSLYLQMNSLKTEDTAVYYCARHGNFGNSYVSWFAYWGQGTLVTVSSISSASTKGPSVFPLAPSSKSTSGGTAALGCLVKDYFPEPVTVSWNSGALTSGVHTFPAVLQSSGLYSLSSVVTVPSSSLGTQTYICNVNHKPSNTKVDKKVEPKSCDKTHTCPPCPAPELLGGPSVFLFPPKPKDTLMISRTPEVTCVVVDVSHEDPEVKFNWYVDGVEVHNAKTKPREEQYNSTYRVVSVLTVLHQDWLNGKEYKCKVSNKALPAPIEKTISKAKGQPREPQVYTLPPSREEMTKNQVSLTCLVKGFYPSDIAVEWESNGQPENNYKTTKKKLDSDGSFFLYSKLTVDKSRWQQGNVFSCSVMHEALHNHYTQKSLSLSPGK
light 1: QTVVTQEPSLTVSPGGTVTLTCGSSTGAVTTSNYANWVQEKPGQAPRGLIGGTNKRAPWTPARFSGSLLGGKAALTITGAQAEDEADYYCALWYSNLWVFGGGTKLTVLGKLVTMEIKRTVAAPSVFIFPPSDEQLKSGTASVVCLLNNFYPREAKVQWKVDNALQSGNSQESVTEQDSKDSTYSLSSTLTLSKADYEKHKVYTCEVTHQGLSSPVTKSFNRGEC
heavy 2: not shown
light 2: DIQMTQSPSSLSASVGDRVTITCRASQDVNTAVAWYQQKPGKAPKLLIYSASFLYSGVPSRFSGSRSGTDFTLTISSLQPEDFATYYCQQHYTTPPTFGQGTKLVTMEIKRTVAAPSVFICPPSDEQLKSGTASVVCLLNNFYPREAKVQWKVDNALQSGNSQESVTEQDSKDSTYSLSSTLTLSKADYEKHKVYTCEVTHQGLSSPVTKSFNRGES
  对SKBR3细胞的杀伤 EC50浓度 (CTL, LDH release, PBMC effector cells): 0.045 ng/mL

B2: 抗Her2×抗CD3双特异性抗体MutC+ER (bispecific antibody)
chain 1: EVQLVESGGGLVQPGGSLRLSCAASGFTFNTYAMNWVRQAPGKGLEWVARIRSKYNNYATYYADSVKDRFTISRDDSKNSLYLQMNSLKTEDTAVYYCARHGNFGNSYVSWFAYWGQGTLVTVSSISSASTKGPSVFPLAPSSKSTSGGTAALGCLVKDYFPEPVTVSWNSGALTSGVHTFPAVLQSSGLYSLSSVVTVPSSSLGTQTYICNVNHKPSNTKVDKKVEPESCDKTHTCPPCPAPELLGGPSVFLFPPKPKDTLMISRTPEVTCVVVDVSHEDPEVKFNWYVDGVEVHNAKTKPREEQYNSTYRVVSVLTVLHQDWLNGKEYKCKVSNKALPAPIEKTISKAKGQPREPQVYTLPPSREEMTKNQVSLTCLVKGFYPSDIAVEWESNGQPENNYKTTKKKLDSDGSFFLYSKLTVDKSRWQQGNVFSCSVMHEALHNHYTQKSLSLSPGK
chain 2: QTVVTQEPSLTVSPGGTVTLTCGSSTGAVTTSNYANWVQEKPGQAPRGLIGGTNKRAPWTPARFSGSLLGGKAALTITGAQAEDEADYYCALWYSNLWVFGGGTKLTVLGKLVTMEIKRTVAAPSVFIFPPSDEQLKSGTASVVCLLNNFYPREAKVQWKVDNALQSGNSQESVTEQDSKDSTYSLSSTLTLSKADYEKHKVYTCEVTHQGLSSPVTKSFNRGRC
chain 3: not shown
chain 4: DIQMTQSPSSLSASVGDRVTITCRASQDVNTAVAWYQQKPGKAPKLLIYSASFLYSGVPSRFSGSRSGTDFTLTISSLQPEDFATYYCQQHYTTPPTFGQGTKLVTMEIKRTVAAPSVFICPPSDEQLKSGTASVVCLLNNFYPREAKVQWKVDNALQSGNSQESVTEQDSKDSTYSLSSTLTLSKADYEKHKVYTCEVTHQGLSSPVTKSFNRGES
  对SKBR3细胞的杀伤 EC50浓度 (CTL, LDH release, PBMC effector cells): 0.055 ng/mL

B3: 抗Her2×抗CD3双特异性抗体MutC-ER (bispecific antibody, human IgG1, kappa)
heavy 1: EVQLVESGGGLVQPGGSLRLSCAASGFTFNTYAMNWVRQAPGKGLEWVARIRSKYNNYATYYADSVKDRFTISRDDSKNSLYLQMNSLKTEDTAVYYCARHGNFGNSYVSWFAYWGQGTLVTVSSISSASTKGPSVFPLAPSSKSTSGGTAALGCLVKDYFPEPVTVSWNSGALTSGVHTFPAVLQSSGLYSLSSVVTVPSSSLGTQTYICNVNHKPSNTKVDKKVEPKSCDKTHTCPPCPAPELLGGPSVFLFPPKPKDTLMISRTPEVTCVVVDVSHEDPEVKFNWYVDGVEVHNAKTKPREEQYNSTYRVVSVLTVLHQDWLNGKEYKCKVSNKALPAPIEKTISKAKGQPREPQVYTLPPSREEMTKNQVSLTCLVKGFYPSDIAVEWESNGQPENNYKTTKKKLDSDGSFFLYSKLTVDKSRWQQGNVFSCSVMHEALHNHYTQKSLSLSPGK
light 1: QTVVTQEPSLTVSPGGTVTLTCGSSTGAVTTSNYANWVQEKPGQAPRGLIGGTNKRAPWTPARFSGSLLGGKAALTITGAQAEDEADYYCALWYSNLWVFGGGTKLTVLGKLVTMEIKRTVAAPSVFIFPPSDEQLKSGTASVVCLLNNFYPREAKVQWKVDNALQSGNSQESVTEQDSKDSTYSLSSTLTLSKADYEKHKVYTCEVTHQGLSSPVTKSFNRGEC
heavy 2: not shown
light 2: DIQMTQSPSSLSASVGDRVTITCRASQDVNTAVAWYQQKPGKAPKLLIYSASFLYSGVPSRFSGSRSGTDFTLTISSLQPEDFATYYCQQHYTTPPTFGQGTKLVTMEIKRTVAAPSVFICPPSDEQLKSGTASVVCLLNNFYPREAKVQWKVDNALQSGNSQESVTEQDSKDSTYSLSSTLTLSKADYEKHKVYTCEVTHQGLSSPVTKSFNRGRS
  对SKBR3细胞的杀伤 EC50浓度 (CTL, LDH release, PBMC effector cells): 0.034 ng/mL
